The text below walks through data of article PMC6508891.

For orientation: Kd means the constant that tells how readily two partners part at equilibrium.

The target in assay [1] is recombinant human VWF A1A2A3 triple domain with His tag (human). The assay is described as follows: SPR; BIAcore 3000; VWF A1A2A3 or single A domain amine-coupled to CM5; C3 or C4 perfused at 0-2.0 μM; 10 mM HEPES, 150 mM NaCl, 0.005% Tween-20, pH 7.4, 25°C, 10 µL/min; 1:1 Langmuir and shift baseline models. On the technique in general: Surface plasmon resonance follows binding to a sensor surface in real time, without labels.

Assay [2] deals with recombinant human VWF A1 domain with His tag (human). The assay is described as above.
Assay [3] concerns the target recombinant human VWF A3 domain with His tag (human). The assay is described as above.
The target of assay [4] is purified human complement component C4 (human). The experiment in a line: SPR; BIAcore 3000; C3 or C4 amine-coupled to CM5; VWF A1A2A3 or single A domain perfused at 0-2.0 μM; 10 mM HEPES, 150 mM NaCl, 0.005% Tween-20, pH 7.4, 25°C, 10 µL/min; 1:1 Langmuir and shift baseline models.
In assay [5] the target is purified human complement component C3 (human) (UniProt P01024). The assay is described as above.

On to “purified human complement component C3 (from UniProt P01024 23-667; P01024 672-1663) (natural protein)”, for which the Kd in assay [1] was 661 nM; in assay [2], 252 nM; in assay [3], 137 nM.

As to “recombinant human VWF A1 domain with His tag (domain or fragment)”, the Kd is 504 nM in assay [4] and above 2000 nM in assay [5].

Turning to “purified human complement component C4 (natural protein)”, the Kd in assay [1] is above 2000 nM; in assay [2], 139 nM; in assay [3], above 2000 nM.

On to “recombinant human VWF A1A2A3 triple domain with His tag (domain or fragment)”, for which the Kd in assay [4] is 523 nM; in assay [5], 232 nM.

For the substance “recombinant human VWF A3 domain with His tag (domain or fragment)”, the Kd was above 2000 nM in assay [4] and 100 nM in assay [5].
